Experimental data taken from publication PMC5814282, “Biophysical studies and NMR structure of YAP2 WW domain - LATS1 PPxY motif complexes reveal the basis of their interaction” (Oncotarget, 2018).

Tests used:
[1] = target: WW12 (YAP2, both WW domains); experiment: ITC, WW12 versus PY12; assay type: binding, human; conditions: 25°C, 2 mM DTT, 2 mM EDTA
Method: ITC experiments were performed using the MicroCal VP-ITC titration calorimeter (MicroCal-Malvern). […] The proteins and peptides used were prepared in the same buffer containing 20 mM Tris-HCl pH 7.0 and 100 mM NaCl. Protein concentrations varying from 20 to 70 μM were titrated against peptide concentrations ranging from 0.5 to 1.8 mM at 25°C. The peptide samples were also injected into buffer as a reference to estimate the heat of dilution. In the case of WW12 vs PY12, the buffer used was 20 mM Tris-HCl pH 7.0, 100 mM NaCl, 3% glycerol, 2 mM DTT and 2 mM EDTA. All samples were degassed and spun before the experiment. The binding isotherms were analyzed employing a model that considered a single ligand binding site implemented in Origin 7 (OriginLab).

WW12 = experiment: Co-expression, affinity and gel filtration chromatography of WW12-PY12; assay type: binding, human; conditions: WW12 and PY12 co-expressed in E. coli
Method: Cells were harvested by spinning at 4,000 g for 20 min and lysed by sonication in buffer containing 50 mM Tris-HCl pH 7.0, 200 mM NaCl, 5% glycerol, 2 mM DTT, 0.5% Triton X-100 and 1mM PMSF. […] The GST tag was cleaved overnight using PreScission Protease. In the case of WW12-PY12 complex, an additional Ni-NTA chromatography step was performed, as PY12 contained a His-tag. The eluted proteins were further purified using FPLC Superdex 75 gel filtration in buffer containing 20 mM Tris-HCl pH 7.0, 100 mM NaCl, 5% glycerol and 2 mM DTT. The purity and quality of the purified proteins were assessed using SDS polyacrylamide gel electrophoresis (SDS-PAGE) and dynamic light scattering (DLS).

B1: PY12: LATS1 region PY12 (containing both PPxY motifs; aa 361-567) (protein)
chain: NVVPAGTVNRQPPPPYPLTAANGQSPSALQTGGSAAPSSYTNGSIPQSMMVPNRNSHNMELYNISVPGLQTNWPQSSSAPAQSSPSSGHEIPTWQPNIPVRSNSFNNPLGNRASHSANSQPSATTVTAITPAPIQQPVKSMRVLKPELQTALAPTHPSWIPQPIQTVQPSPFPEGTASNVTVMPPVAEAPNYQGPPPPYPKHLLHQN
modifications: left off: His-tag, end not stated, kept
With B1 the Kd ([1]; ITC VP-ITC, 20 mM Tris-HCl pH 7.0, 100 mM NaCl, 3% glycerol, single ligand binding site model) was 9.6 µM, the “-TΔS” value ([1]; ITC, pH 7.0, 3% glycerol) was 33.4 kcal/mol and the ΔG ([1]; ITC, pH 7.0, 3% glycerol) was -6.8 kcal/mol. The ΔH ([1]; ITC, pH 7.0, 3% glycerol) was -40.2 kcal/mol and the complex formation (WW12) was “formed a tight complex”.
